The record followed here is patent US20180244758A1.

A value given as a limit tells only on which side of the number the result lay.

The labels stand for the following.
B1: mAb PE-87 (antibody, V domains shown)
VH: QVQLVQSGVTLVQPGGSLRVSCAASGFTFSSYAMSWVRQAPGKGLEWVSAISGLGGSTYYADSVKGRFTISRDNSKNTLYLQMNSLRAEDTAVYYCAKDHRVWAAGYHFDYWGQGALVTVSS
VL: DIVLTQSPSTLSASVGDRVTITCRASQSISSWLAWYQQKPGEAPKLLISDASSLESGVPSRFSGSGSGTEFTLTISSLQPDDFATYYCQQYYSSPTFGGGTKVEIK
B2: PE-87 R101A (antibody, V domains shown)
VH: QVQLVQSGVTLVQPGGSLRVSCAASGFTFSSYAMSWVRQAPGKGLEWVSAISGLGGSTYYADSVKGRFTISRDNSKNTLYLQMNSLRAEDTAVYYCAKDHAVWAAGYHFDYWGQGALVTVSS
VL: DIVLTQSPSTLSASVGDRVTITCRASQSISSWLAWYQQKPGEAPKLLISDASSLESGVPSRFSGSGSGTEFTLTISSLQPDDFATYYCQQYYSSPTFGGGTKVEIK
B3: PE-87 F109A (antibody, V domains shown)
VH: QVQLVQSGVTLVQPGGSLRVSCAASGFTFSSYAMSWVRQAPGKGLEWVSAISGLGGSTYYADSVKGRFTISRDNSKNTLYLQMNSLRAEDTAVYYCAKDHRVWAAGYHADYWGQGALVTVSS
VL: DIVLTQSPSTLSASVGDRVTITCRASQSISSWLAWYQQKPGEAPKLLISDASSLESGVPSRFSGSGSGTEFTLTISSLQPDDFATYYCQQYYSSPTFGGGTKVEIK
B4: PE-87 Y111A (antibody, V domains shown)
VH: QVQLVQSGVTLVQPGGSLRVSCAASGFTFSSYAMSWVRQAPGKGLEWVSAISGLGGSTYYADSVKGRFTISRDNSKNTLYLQMNSLRAEDTAVYYCAKDHRVWAAGYHFDAWGQGALVTVSS
VL: DIVLTQSPSTLSASVGDRVTITCRASQSISSWLAWYQQKPGEAPKLLISDASSLESGVPSRFSGSGSGTEFTLTISSLQPDDFATYYCQQYYSSPTFGGGTKVEIK
B5: PE-87 V102A (antibody, V domains shown)
VH: QVQLVQSGVTLVQPGGSLRVSCAASGFTFSSYAMSWVRQAPGKGLEWVSAISGLGGSTYYADSVKGRFTISRDNSKNTLYLQMNSLRAEDTAVYYCAKDHRAWAAGYHFDYWGQGALVTVSS
VL: DIVLTQSPSTLSASVGDRVTITCRASQSISSWLAWYQQKPGEAPKLLISDASSLESGVPSRFSGSGSGTEFTLTISSLQPDDFATYYCQQYYSSPTFGGGTKVEIK
B6: PE-87 G106A (antibody, V domains shown)
VH: QVQLVQSGVTLVQPGGSLRVSCAASGFTFSSYAMSWVRQAPGKGLEWVSAISGLGGSTYYADSVKGRFTISRDNSKNTLYLQMNSLRAEDTAVYYCAKDHRVWAAAYHFDYWGQGALVTVSS
VL: DIVLTQSPSTLSASVGDRVTITCRASQSISSWLAWYQQKPGEAPKLLISDASSLESGVPSRFSGSGSGTEFTLTISSLQPDDFATYYCQQYYSSPTFGGGTKVEIK
B7: PE-87 H108A (antibody, V domains shown)
VH: QVQLVQSGVTLVQPGGSLRVSCAASGFTFSSYAMSWVRQAPGKGLEWVSAISGLGGSTYYADSVKGRFTISRDNSKNTLYLQMNSLRAEDTAVYYCAKDHRVWAAGYAFDYWGQGALVTVSS
VL: DIVLTQSPSTLSASVGDRVTITCRASQSISSWLAWYQQKPGEAPKLLISDASSLESGVPSRFSGSGSGTEFTLTISSLQPDDFATYYCQQYYSSPTFGGGTKVEIK
B8: PE-87 Y107A (antibody, V domains shown)
VH: QVQLVQSGVTLVQPGGSLRVSCAASGFTFSSYAMSWVRQAPGKGLEWVSAISGLGGSTYYADSVKGRFTISRDNSKNTLYLQMNSLRAEDTAVYYCAKDHRVWAAGAHFDYWGQGALVTVSS
VL: DIVLTQSPSTLSASVGDRVTITCRASQSISSWLAWYQQKPGEAPKLLISDASSLESGVPSRFSGSGSGTEFTLTISSLQPDDFATYYCQQYYSSPTFGGGTKVEIK
B9: PE-87 W103A (antibody, V domains shown)
VH: QVQLVQSGVTLVQPGGSLRVSCAASGFTFSSYAMSWVRQAPGKGLEWVSAISGLGGSTYYADSVKGRFTISRDNSKNTLYLQMNSLRAEDTAVYYCAKDHRVAAAGYHFDYWGQGALVTVSS
VL: DIVLTQSPSTLSASVGDRVTITCRASQSISSWLAWYQQKPGEAPKLLISDASSLESGVPSRFSGSGSGTEFTLTISSLQPDDFATYYCQQYYSSPTFGGGTKVEIK
B10: PE-87 D110A (antibody, V domains shown)
VH: QVQLVQSGVTLVQPGGSLRVSCAASGFTFSSYAMSWVRQAPGKGLEWVSAISGLGGSTYYADSVKGRFTISRDNSKNTLYLQMNSLRAEDTAVYYCAKDHRVWAAGYHFAYWGQGALVTVSS
VL: DIVLTQSPSTLSASVGDRVTITCRASQSISSWLAWYQQKPGEAPKLLISDASSLESGVPSRFSGSGSGTEFTLTISSLQPDDFATYYCQQYYSSPTFGGGTKVEIK
B11: PE-87 H100A (antibody, V domains shown)
VH: QVQLVQSGVTLVQPGGSLRVSCAASGFTFSSYAMSWVRQAPGKGLEWVSAISGLGGSTYYADSVKGRFTISRDNSKNTLYLQMNSLRAEDTAVYYCAKDARVWAAGYHFDYWGQGALVTVSS
VL: DIVLTQSPSTLSASVGDRVTITCRASQSISSWLAWYQQKPGEAPKLLISDASSLESGVPSRFSGSGSGTEFTLTISSLQPDDFATYYCQQYYSSPTFGGGTKVEIK
B12: PE-87 D99A (antibody, V domains shown)
VH: QVQLVQSGVTLVQPGGSLRVSCAASGFTFSSYAMSWVRQAPGKGLEWVSAISGLGGSTYYADSVKGRFTISRDNSKNTLYLQMNSLRAEDTAVYYCAKAHRVWAAGYHFDYWGQGALVTVSS
VL: DIVLTQSPSTLSASVGDRVTITCRASQSISSWLAWYQQKPGEAPKLLISDASSLESGVPSRFSGSGSGTEFTLTISSLQPDDFATYYCQQYYSSPTFGGGTKVEIK

The target of this assay is EBOV GP[change] (Ebola virus) (UniProt Q05320).
Chain of EBOV GP[change] (Ebola virus) (Q05320 33-501, chain 1 of 2): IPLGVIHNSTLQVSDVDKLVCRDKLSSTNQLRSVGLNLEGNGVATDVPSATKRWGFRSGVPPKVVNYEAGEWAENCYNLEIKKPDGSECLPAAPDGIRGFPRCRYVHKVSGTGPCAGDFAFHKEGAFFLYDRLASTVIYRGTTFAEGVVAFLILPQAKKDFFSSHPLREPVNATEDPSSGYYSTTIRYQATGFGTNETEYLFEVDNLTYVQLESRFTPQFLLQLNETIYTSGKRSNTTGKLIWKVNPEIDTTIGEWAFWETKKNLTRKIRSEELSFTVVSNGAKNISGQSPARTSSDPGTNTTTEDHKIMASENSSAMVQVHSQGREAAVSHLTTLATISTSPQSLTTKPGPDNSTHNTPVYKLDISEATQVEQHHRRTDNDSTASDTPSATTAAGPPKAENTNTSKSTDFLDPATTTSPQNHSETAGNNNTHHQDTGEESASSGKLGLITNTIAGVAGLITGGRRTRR
Chain of EBOV GP[change] (Ebola virus) (Q05320 502-650, chain 2 of 2): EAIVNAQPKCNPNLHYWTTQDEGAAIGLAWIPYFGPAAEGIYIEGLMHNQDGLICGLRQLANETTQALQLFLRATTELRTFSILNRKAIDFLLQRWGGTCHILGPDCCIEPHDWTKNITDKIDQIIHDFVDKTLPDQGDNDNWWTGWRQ
For orientation: Kd means the equilibrium constant for the complex coming apart. A lower Kd goes with a tighter complex. In turn, B1 showed a Kd of less than 0.001 nM.
The figure for B2 is 9.4 nM; for B3 it is 37 nM.
The figure for B4 is 5.9 nM; for B5 it is 4 nM.
The figure for B6 is 0.03 nM.
Take B7: the Kd was found to be 18 nM.
As for B8, the figure is 30 nM; as for B9, 1.3 nM.
As for B10, the figure is 1.3 nM; as for B11, 4.5 nM.
As for B12, the figure is 74 nM.
